Measured values from the DeepSol protein solubility set.

Assay: soluble on expression in E. coli; label from the status in PepcDB or PDB records

Sequence	soluble on expression in E. coli
MSIPEELWRRFQEGDPRALARALTLVESGHPAGRELLKRVRGKGRAKVVGVTGSPGAGKSTLTDRLILEARKRGERVAVLAVDPSSPFSGGAILGDRIRMMRHHQDPGVYIRSMASRGALGGLAGATVAALSLLEAFGFDRIFVETVGVGQSEVDIARVADTTLLVLTPAAGDAVQAFKAGVMEIADVFAVNKFDLPGGERIVQELKSALELSPPRPGGWRPPIHPTVAASGEGVEALFESLEAHHRHLVEHGLLEAHRLERARFEVESVIQEWGRQRTQGAGALVARVARGELTPEEAALALLGPGPEAEEGAL	soluble
MSIWKEAKDASGRIYYYNTLTKKSTWEKPKELISQEELLLRENGWKAAKTADGKVYYYNPTTRETSWTIPAFEKK	soluble
MSIYKIPLPLNILEAARERITWTLNTLPRVCVSFSGGKDSGLMLHLTAELARQMGKKICVLFIDWEAQFSCTINYVQSLRELYTDVIEEFYWVALPLTTQNSLSQYQPEWQCWEPDVEWVRQPPQDAITDPDFFCFYQPGMTFEQFVREFAEWFSQKRPAAMMIGIRADESYNRFVAIASLNKQRFADDKPWTTAAPGGHSWYIYPIYDWKVADIWTWYANHQSLCNPLYNLMYQAGVPLRHMRICEPFGPEQRQGLWLYHVIEPDRWAAMCARVSGVKSGGIYAGHDNHFYGHRKILKPEHLDWQEYALLLLNSMPEKTAEHYRNKIAIYLHWYQKKGIEVPQTQQGDIGAKDIPSWRRICKVLLNNDYWCRALSFSPTKSKNYQRYNERIKGKRQEWGILCNND	not soluble
MSKELFLEIGTEEIPAGFLPKAMADMEAIVTKELENARLAFGEVKTFATPRRLALVVKGLPTVQPDAEITALGPARNIAFGPDGTPSKAAEGFARGQGVDVASLTLVSTEKGEYVAAVRKESGRPVPDLLAEILPRLVGGIPFRKSMRWADLDVRFARPIHWIVALFDGVVVPFAFGNVQSGNVSRGHRFMANQPFPVRDFAHYLDECERHFVIPDPERRKETIRREIHRVAKTAGGHLLPDEGLLDEVAYLVEYPSVVHGTFSPDFLKVPREVLITSMRSHQRYFSIVDDAGKLMPGFITINNTLTEDPSVVVKGNERVLRARLSDARFFFEEDQKVKLETRVESLKNVVYQQKLGTSYEKMERFRALAEGLADLLNPAVKAKTSRAAFLCKADLVSGMVGEFPEVQGIMGREYALLQGEDAEVAAAIAEHYLPTQAGGDLPASDIGAFVSIADKLDTICGCFGVGLIPTGSADPYALRRSALGIINIILDRGCRLSLEGEIGKALELLSAKLTRPAAEVMADVLEFFRGRFVNLMADRYPADAVDAAIAAGFDD	not soluble
MSKGGWYLWHYLTLLKGKAYCDIYCKRITFNVKFRYVYRHFHWYSSSNNKFKQLEHHHHHH	not soluble
MSKIEQIITEIEEYIDNCKFQPLSTSKIIVNKDEIDELLAELRLRTPDEIKKYQKIIANKDAILNDAKERAEAMVSEATAHINQLVSEHEIMQKAYEEANQIIEQAQAEAQGILDSATTEANDLRTRAMQYTDDILANVQSILSTGMDSFESAQNTMMTSLNSSLNVVVESRKELGGAEDEESVENGEDDNLSVDLL	not soluble
MSKKLKPFEILEDSCASVCIWLNGEPTAISNRAENLWNKAKYRVATDGAVNEILKRKSFVEWPHIICGDFDSINKQIDTKNAKVVHLPDQDYTDLSKSVQWCLEQKTLTSWEFENIVVLGGLNGRFDHTMSTLSSLIRFVDSQTPVIVLDSRNLVLAVPTGDSNLDVNLEMTTKMCGIIPIVQKETIKTLLLNLENLSARRMKLPRAKYF	not soluble
MSKNMQNTSYRKLDVDSFDPEQYDENDETVDTPGLGPDERAVQGFLSSNRLEDALHAALLSPPLKTKDQNVKDRATQLVTKVLQSFKNAEIEATVQKLSIEESDILMKYVYKSMEIGADAAVCQSLLAWHAQLVAKFGHGAIMRVFSGRQRL	soluble
MSKPFKLNSAFKPSGDQPEAIRRLEEGLEDGLAHQTLLGVTGSGKTFTIANVIADLQRPTMVLAPNKTLAAQLYGEMKEFFPENAVEYFVSYYDYYQPEAYVPSSDTFIEKDASVNEHIEQMRLSATKAMLERRDVVVVASVSAIYGLGDPDLYLKMMLHLTVGMIIDQRAILRRLAELQYARNDQAFQRGTFRVRGEVIDIFPAESDDIALRVELFDEEVERLSLFDPLTGQIVSTIPRFTIYPKTHYVTPRERIVQAMEEIKEELAARRKVLLENNKLLEEQRLTQRTQFDLEMMNELGYCSGIENYSRFLSGRGPGEPPPTLFDYLPADGLLVVDESHVTIPQIGGMYRGDRARKETLVEYGFRLPSALDNRPLKFEEFEALAPQTIYVSATPGNYELEKSGGDVVDQVVRPTGLLDPIIEVRPVATQVDDLLSEIRQRAAINERVLVTTLTKRMAEDLTEYLEEHGERVRYLHSDIDTVERMEIIRDLRLGEFDVLVGINLLREGLDMPEVSLVAILDADKEGFLRSERSLIQTIGRAARNVNGKAILYGDKITPSMAKAIGETERRREKQQKYNEEHGITPQGLNKKVVDILALGQNIAKTKAKGRGKSRPIVEPDNVPMDMSPKALQQKIHELEGLMMQHAQNLEFEEAAQIRDQLHQLRELFIAAS	soluble
MSKPKYPFEKRLEVVNHYFTTDDGYRIISARFGVPRTQVRTWVALYEKHGEKGLIPKPKGVSADPELRIKVVKAVIEQHMSLNQAAAHFMLAGSGSVARWLKVYEERGEAGLRALKIGTKRNIAISVDPEKAASALELSKDRRIEDLERQVRFLETRLMYLKKLKALAHPTKK	not soluble
MSKTFRVSKVTSGNSKAIQQTKPITILLMGVDTGSKGRKETWEGNSDTMILVTVNPKTKRTTMTSLERDLLADVEGSGEAKLNSAYAEGGADLAISTIQKVLDIDIDYYALINMHGMIDLVDAVGGIEVTNHFDFPISIAENEPEFQAKVEPGTHKINGEQALVYSRMRYDDPDGDYGRQKRQREVIQKIVAKLLKMDSIGSYKKILSAVSSNVQTSINLGDSTTLRGLMGYSEALKNIKSYQLAGSDAMINGGSYQVASTEDILKVQNRIKKEVGKKGVSESKLKTSLVLNDFGTSSYVSDDFVNSTGSYEAGPSEATGGGSVSTYYGGTTYGNSYTENTSNYVQDQATTAPTINYNGSGVTTYNLVPAAQLEHHHHHH	soluble
MSKVMNALKQSQQKYLQAQPVSRRTYTEQEPTAMNPSRWLHLALWLVPGLVTAGVMTYQRYELVQQEVANRQTEPTTVQVDAPLERLAYPEFQDLQPTFVESGLDEPYPEEDVTALADNIVAPPATIQASGQQSASNKALGDLDLTQLSPELALRVQAIMRDQSSEPATPSTPTSAAVSLTQHSDRYQGQLPALNFQMHAFSSNEQKRWIKVNGVEYREGDMLTPEVKLESIKPQSSVIIFGGEEIEIPALYDWKG	not soluble
MSKWIILSDNHKETGILYHIYELHKDADKFLHLGDSEFSYNDTELSLYQRVKGNCDFYPEFLEEEITEENGIRAFYTHGHLYQVNQTRMKLAEKAKELGCLFAFYGHTHVAKYEQIGGIHVINPGSISQSRSQIEETFAELVYKEDENTIILNFRNRENQIIETVKIEFLEHHHHHH	soluble
MSKYAILGLVLVGTVASLDFIGRTQSAAIKGRLVCEGKPASGVKVKLMESDNSFGPGFLDSDDKMASGKADSHGEFNLSGSTKEITGIEPYLVVFHDCKDGITPCQRVFRVNVPKSYTNSGSSAKKTYDAGVIELAGKYPGETRSCLN	not soluble
MSKYLHSEKAYLDLINAVKDKFNYKKSVVPYIIYFLLKTGMRYGELIALTWEDIDFDKGIFKTYRRFNSETSQFVPPKNKTSIRIVPVDNECLEILKNLKIEQNQSNKELGLQNTNNMVFQHFGYPNSVPSTNGTNKVLRGIVQELNIEPIITTKGARHTYGSFLWHRGYDLGIIAKILGHKDISMLIEVYGHTLEEKIQEEYNEIKQLWLEHHHHHH	soluble
